Experiments:
[1] = test system: HAdV-5; conditions: ref [13], cited from earlier work
[2] = test system: Ad5.F35; test: Sensitivity of Ad5.F35 to HD5; type: cell-based, human adenovirus; conditions: data not shown; compared with HAdV-5 and HAdV-35
[3] = test system: HAdV-4 (species E); test: Infection assay (hexon staining), HAdV-4; type: cell-based, human adenovirus; conditions: 15 µM HD5 or HNP1, A549 cells, hexon staining at ~48 h, vs. no defensin
Protocol: To determine whether sensitivity to α-defensins is a general property of HAdVs, serotypes representative of HAdV species A–F were tested for infectivity in the presence of 15 µM HD5 or HNP1 (Figure 1). Wild type HAdVs rather than vectors were used for these studies, and infectivity was assessed by staining for hexon production. […] These studies indicate that sensitivity to α-defensins is species specific. In addition, particular HAdV serotypes are not equally sensitive to all defensins, indicating defensin sequence specificity as well.
Figure 1 Sensitivity to neutralization by alpha-defensins is AdV species specific. HAdVs were incubated with 15 µM HD5 (A) or HNP1 (B) and assessed for infectivity on A549 cells. Data are the mean of the percent infectivity compared to control cells infected with each virus in the absence of defensin for at least three independent experiments ± SD. The upper limit for quantification of this assay is 200%. […]
Prior to use in this assay, each virus stock was titrated on A549 cells. […] In parallel, wells were infected with two-fold serial dilutions of each virus to establish a standard curve for quantification with an upper limit of 200%. […] Total well fluorescence above background was quantified with ImageJ software. For each virus, samples were quantified by nonlinear regression against the standard curve using Prism software (GraphPad Software, Inc., La Jolla, CA).

[4] = test system: HAdV-5; conditions: ref [13], cited from earlier work; remark: listed apart in the source
Protocol: In order to determine the receptor-dependence of this effect, we pre-incubated cells with recombinant fiber knob from HAdV-5 (5FK) to block receptor (CAR) interactions and measured cell binding of fluorescently labeled HAdV-5 that was pre-incubated with or without HD5 or HD5-Abu (Figure 3C). Cells incubated with fiber knob from HAdV-16 (16FK), which binds CD46, served as a control. […] Therefore, we considered which of the multiple binding sites visualized by cryoEM might lead to enhanced virion stability. We reasoned that we might find a negatively charged region o ...

[5] = test system: HAdV-5 capsid; conditions: previous observation; cited from earlier work
Source text: Therefore, we considered which of the multiple binding sites visualized by cryoEM might lead to enhanced virion stability. We reasoned that we might find a negatively charged region o ... || Based on our combined functional and structural studies, we propose a model for neutralization in which α-defensins bind to critical capsid determinants at the point of contact between fiber and penton base, thereby preventing fiber release. One implication of this model is that fiber dissociation is absolutely required for subsequent uncoating events. This model cannot distinguish between the dissociation of fiber and penton base from the capsid independently or together as a complex. In the first case, defensin may actively lock the fiber onto the penton base. Alternatively, HD5 may obstruct ...

B1: HD5: human alpha-defensin; synthetic, obtained from Peptides International; three disulfide bonds (PDB 1ZMP) (peptide, UniProt Q01523 20-94, looked up)
Defensin alpha 5: ESLQERADEATTQKQSGEDNQDLAISFAGNGLSALRTSGSQARATCYCRTGRCATRESLSGVCEISGRLYRLCCR
modifications: Defensin-5
In the case of B1, the “inhibition of HAdV-5 infection” value ([1]; low micromolar concentrations) is listed as “significantly inhibit HAdV-5 infection at low micromolar concentrations”, the “productive infection by HAdV-5” value [1] is listed as “almost complete block to productive infection” and the IC50 ([1]; read-out: IC50 for HAdV-5 infection) is listed as 3 to 4 µM. For the same molecule, the “sensitivity of Ad5.F35 to HD5” value [2] was “comparable to that of HAdV-5 and HAdV-35”, the “sensitivity to neutralization (infectivity)” value [3] was “moderately sensitive” and the “effect on HAdV-5 entry into host cells” value [4, 36] was “does not prevent HAdV-5 from entering host cells”. The “binding of HAdV-5 to cells” value [4] was “enhances binding of HAdV-5 to cells” and the “effect on capsid proteins upon exposure to heat” value [5] was “stabilizes the capsid and prevents dissociation of capsid proteins, including fiber, upon exposure to heat”.

Source: PMC2891831, “Insight into the Mechanisms of Adenovirus Capsid Disassembly from Studies of Defensin Neutralization” (PLoS Pathogens, 2010)
